For 11 molecules, Kd, EC50 and FOB (Fold Over Background) results are on record in patent US20230050440A1.

The term Kd denotes the equilibrium constant for the complex coming apart. Read a low Kd as tighter binding. One may read the EC50 as the concentration that produces a half-maximal response.

The target of experiment [1] is dimeric mouse TIGIT-Fc (R&D Systems, 7267-TG) (mouse) (UniProt P86176). Briefly: BLI (ForteBio Octet RED384), IgG on AHQ sensor, 100 nM antigen, 1:1 model.
Experiment [2] concerns the target mouse TIGIT expressed on cells (mouse) (UniProt P86176). Briefly: flow cytometry titration, HEK 293 cells expressing mouse TIGIT. In general terms: Flow cytometry measures light scatter and fluorescence of single cells or particles in a stream.
Experiment [3] shares this target. Briefly: flow cytometry on HEK 293 cells expressing the target, MFI over parental HEK 293.
The target is the same in experiment [4]. Briefly: flow cytometry, titration on activated mouse splenic T cells.
Experiment [5] deals with dimeric mouse TIGIT-Fc (R&D Systems, 7267-TG) (mouse) (UniProt P86176). Briefly: BLI (ForteBio), IgG on sensor, avid. On the technique in general: In BLI a coated tip is dipped into the sample, and binding shifts an interference pattern.

Chain of dimeric mouse TIGIT-Fc (R&D Systems, 7267-TG) (mouse) (P86176 other isoform, or with tags, fused parts or gaps limits assumed, form in doubt): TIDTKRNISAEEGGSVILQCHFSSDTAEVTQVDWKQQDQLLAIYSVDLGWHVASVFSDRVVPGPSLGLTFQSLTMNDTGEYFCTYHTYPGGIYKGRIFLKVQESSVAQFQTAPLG
Chain of mouse TIGIT expressed on cells (mouse) (P86176 other isoform, or with tags, fused parts or gaps limits assumed, form in doubt): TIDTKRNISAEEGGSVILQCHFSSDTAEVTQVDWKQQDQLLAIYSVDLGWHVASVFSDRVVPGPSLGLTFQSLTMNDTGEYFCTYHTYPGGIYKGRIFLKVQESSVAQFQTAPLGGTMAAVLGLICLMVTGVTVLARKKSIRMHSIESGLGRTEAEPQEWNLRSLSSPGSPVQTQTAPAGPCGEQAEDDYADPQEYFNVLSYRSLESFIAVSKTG

B1: Clone 22 (antibody, V domains shown)
VH: QVQLQESGPGLVKPSETLSLTCAVSGYSISSGYYWAWIRQPPGKGLEWIGSIYHSGSTYYNPSLKSRVTISVDTSKNQFSLKLSSVTAADTAVYYCARQGYYYGSSGSVDFDLWGRGTLVTVSS
VL: DIQMTQSPSSVSASVGDRVTITCRASQGISSWLAWYQQKPGKAPKLLIYAASNLQSGVPSRFSGSGSGTDFTLTISSLQPEDFATYYCQQANSLPPWTFGGGTKVEIK
In experiment [1], B1 displayed a Kd of 10.5 nM. In other words, the double-digit nanomolar range.

B2: Clone 25 (antibody, V domains shown)
VH: QVQLVQSGAEVKKPGASVKVSCKASGYTFTSYAISWVRQAPGQGLEWMGWISAYNGNTNYAQKLQGRVTMTTDTSTSTAYMELRSLRSDDTAVYYCARDLSSFWSGDVLGAFDIWGQGTMVTVSS
VL: DIQMTQSPSSLSASVGDRVTITCRASQSISSYLNWYQQKPGKAPKLLIYAASSLQSGVPSRFSGSGSGTDFTLTISSLQPEDFATYYCQQSVPPRTFGGGTKVEIK
As to B2, the Kd is 1.1 nM in experiment [1] and 0.967 nM in experiment [5]. In addition, the EC50 was determined as 0.24 µg/mL in experiment [2] and 2.28 µg/mL in experiment [4]. In experiment [3], the FOB (Fold Over Background) is 117 fold.

B3: Clone 25A (antibody, V domains shown)
VH: QVQLVQSGAEVKKPGASVKVSCKASGYTFTSYAISWVRQAPGQGLEWMGWISAYNGNTKYAQKLQGRVTMTTDTSTSTAYMELRSLRSDDTAVYYCARDLSSFWSGDVLGAFDIWGQGTMVTVSS
VL: DIQMTQSPSSLSASVGDRVTITCRASQSISSYLNWYQQKPGKAPKLLIYAASSLQSGVPSRFSGSGSGTDFTLTISSLQPEDFATYYCQQSVPPRTFGGGTKVEIK
With B3, the FOB (Fold Over Background) in experiment [3] worked out at 119 fold. This molecule yielded a Kd in experiment [5] of 0.823 nM.

B4: Clone 25E (antibody, V domains shown)
VH: QVQLVQSGAEVKKPGASVKVSCKASGYTFTSYAIAWVRQAPGQGLEWMGWISAYNGNTNYAQKLQGRVTMTTDTSTSTAYMELRSLRSDDTAVYYCARSGSSFWSGDVLGAFDIWGQGTMVTVSS
VL: DIQMTQSPSSLSASVGDRVTITCRASQSISSYLNWYQQKPGKAPKLLIYAASSLQSGVPSRFSGSGSGTDFTLTISSLQPEDFATYYCQQSVPPRTFGGGTKVEIK
On to B4, for which the FOB (Fold Over Background) in experiment [3] was 116 fold. In experiment [5], the Kd amounted to 0.566 nM.

B5: Clone 25D (antibody, V domains shown)
VH: QVQLVQSGAEVKKPGASVKVSCKASGYTFTSYPIGWVRQAPGQGLEWMGWISSYNGNTNYAQKLQGRVTMTTDTSTSTAYMELRSLRSDDTAVYYCARDLKSFWSGDVLGAFDIWGQGTMVTVSS
VL: DIQMTQSPSSLSASVGDRVTITCRASQSISSYLNWYQQKPGKAPKLLIYAASSLQSGVPSRFSGSGSGTDFTLTISSLQPEDFATYYCQQSVPPRTFGGGTKVEIK
With B5, the FOB (Fold Over Background) in experiment [3] worked out at 137 fold. For the same molecule, the Kd in experiment [5] came out at 0.58 nM.

B6: Clone 25B (antibody, V domains shown)
VH: QVQLVQSGAEVKKPGASVKVSCKASGYTFTSYPIGWVRQAPGQGLEWMGWISSYNGNTNYAQKLQGRVTMTTDTSTSTAYMELRSLRSDDTAVYYCARDLSSFWSGDVLGAFDIWGQGTMVTVSS
VL: DIQMTQSPSSLSASVGDRVTITCRASQSISSYLNWYQQKPGKAPKLLIYAASSLQSGVPSRFSGSGSGTDFTLTISSLQPEDFATYYCQQSVPPRTFGGGTKVEIK
As for B6, the FOB (Fold Over Background) in experiment [3] came out at 129 fold. In experiment [5], this molecule gave a Kd of 0.719 nM.

B7: Clone 25C (antibody, V domains shown)
VH: QVQLVQSGAEVKKPGASVKVSCKASGYTFTSYPIGWVRQAPGQGLEWMGWISSYNGNTNYAQKLQGRVTMTTDTSTSTAYMELRSLRSDDTAVYYCARGASSFWSGDVLGAFDIWGQGTMVTVSS
VL: DIQMTQSPSSLSASVGDRVTITCRASQSISSYLNWYQQKPGKAPKLLIYAASSLQSGVPSRFSGSGSGTDFTLTISSLQPEDFATYYCQQSVPPRTFGGGTKVEIK
With B7, the FOB (Fold Over Background) in experiment [3] is 124 fold. The molecule further returned a Kd in experiment [5] of 0.494 nM.

B8: Clone 16D (antibody, V domains shown)
VH: QVQLVQSGAEVKKPGSSVKVSCKASGGTFSDYPISWVRQAPGQGLEWMGGIIPIVGGANYAQKFQGRVTITADESTSTAYMELSSLRSEDTAVYYCTRQSTWHKLFGTDVWGQGTTVTVSS
VL: DIQMTQSPSSVSASVGDRVTITCRASQGISSWLAWYQQKPGKAPKLLIYAASSLQSGVPSRFSGSGSGTDFTLTISSLQPEDFATYYCQQGDSLPPTFGGGTKVEIK
On to B8, for which, in experiment [3], the FOB (Fold Over Background) was found to be 63 fold. Also, in experiment [5], the Kd came out at 2.63 nM.

B9: Clone 16E (antibody, V domains shown)
VH: QVQLVQSGAEVKKPGSSVKVSCKASGGTFSDYPISWVRQAPGQGLEWMGGIIPIVGGANYAQKFQGRVTITADESTSTAYMELSSLRSEDTAVYYCARQSTWHKVYGTDVWGQGTTVTVSS
VL: DIQMTQSPSSVSASVGDRVTITCRASQGISSWLAWYQQKPGKAPKLLIYAASSLQSGVPSRFSGSGSGTDFTLTISSLQPEDFATYYCQQGDSLPPTFGGGTKVEIK
On to B9, for which the FOB (Fold Over Background) in experiment [3] is 56 fold. The molecule also displayed a Kd in experiment [5] of 3.7 nM.

B10: Clone 18 (antibody, V domains shown)
VH: QVQLVQSGAEVKKPGASVKVSCKASGYTFTSYYMSWVRQAPGQGLEWMGIINPSGGSTSYAQKFQGRVTMTRDTSTSTVYMELSSLRSEDTAVYYCARVRYGYADGMDVWGQGTTVTVSS
VL: DIQMTQSPSSLSASVGDRVTITCRASQSISSYLNWYQQKPGKAPKLLIYGASSLQSGVPSRFSGSGSGTDFTLTISSLQPEDFATYYCQQVYHLPFTFGGGTKVEIK
B10: the Kd in experiment [1] is 8.82 nM.

B11: Clone 16C (antibody, V domains shown)
VH: QVQLVQSGAEVKKPGSSVKVSCKASGGTFREYAISWVRQAPGQGLEWMGGIHPIFGTARYAQKFQGRVTITADESTSTAYMELSSLRSEDTAVYYCTRQSTWHKLYGTDVWGQGTTVTVSS
VL: DIQMTQSPSSVSASVGDRVTITCRASQGISSWLAWYQQKPGKAPKLLIYAASSLQSGVPSRFSGSGSGTDFTLTISSLQPEDFATYYCQQGDSLPPTFGGGTKVEIK
Regarding B11, the FOB (Fold Over Background) in experiment [3] was found to be 99 fold. Also, the Kd in experiment [5] came to 0.801 nM.
